Test results published in patent US20120225464A1, “Specific Arabinose Transporter of the Plant Arabidopsis Thaliana for the Construction of Pentose-Fermenting Yeasts” (priority 2011, published 2012).

B1: Stp2: transporter Stp2 from Arabidopsis thaliana, a protein of 498 amino acids (SEQ ID NO. 1) (protein, listed as Arabidopsis thaliana)
chain: MAVGSMNVEEGTKAFPAKLTGQVFLCCVIAAVGGLMFGYDIGISGGVTSMDTFLLDFFPHVYEKKHRVHENNYCKFDDQLLQLFTSSLYLAGIFASFISSYVSRAFGRKPTIMLASIFFLVGAILNLSAQELGMLIGGRILLGFGIGFGNQTVPLFISEIAPARYRGGLNVMFQFLITIGILAASYVNYLTSTLKNGWRYSLGGAAVPALILLIGSFFIHETPASLIERGKDEKGKQVLRKIRGIEDIELEFNEIKYATEVATKVKSPFKELFTKSENRPPLVCGTLLQFFQQFTGINVVMFYAPVLFQTMGSGDNASLISTVVTNGVNAIATVISLLVVDFAGRRCLLMEGALQMTATQMTIGGILLAHLKLVGPITGHAVPLIVLILICVYVSGFAWSWGPLGWLVPSEIYPLEVRNAGYFCAVAMNMVCTFIIGQFFLSALCRFRSLLFFFFGIMNIIMGLFVVFFLPETKGVPIEEMAEKRWKTHPRWKKYFKD
B2: Gal2: S. cerevisiae galactose permease Gal2, known to also transport L-arabinose (protein, UniProt P13181 1-574, looked up)
Galactose transporter: MAVEENNMPVVSQQPQAGEDVISSLSKDSHLSAQSQKYSNDELKAGESGSEGSQSVPIEIPKKPMSEYVTVSLLCLCVAFGGFMFGWDTGTISGFVVQTDFLRRFGMKHKDGTHYLSNVRTGLIVAIFNIGCAFGGIILSKGGDMYGRKKGLSIVVSVYIVGIIIQIASINKWYQYFIGRIISGLGVGGIAVLCPMLISEIAPKHLRGTLVSCYQLMITAGIFLGYCTNYGTKSYSNSVQWRVPLGLCFAWSLFMIGALTLVPESPRYLCEVNKVEDAKRSIAKSNKVSPEDPAVQAELDLIMAGIEAEKLAGNASWGELFSTKTKVFQRLLMGVFVQMFQQLTGNNYFFYYGTVIFKSVGLDDSFETSIVIGVVNFASTFFSLWTVENLGHRKCLLLGAATMMACMVIYASVGVTRLYPHGKSQPSSKGAGNCMIVFTCFYIFCYATTWAPVAWVITAESFPLRVKSKCMALASASNWVWGFLIAFFTPFITSAINFYYGYVFMGCLVAMFFYVFFFVPETKGLSLEEIQELWEEGVLPWKSEGWIPSSRRGNNYDLEDLQHDDKPWYKAMLE

Experiments:
Format in all cases: cell-based, S. cerevisiae
Stp2 = biological target: T1, Stp2 (Arabidopsis thaliana, UniProt Q9LNV3); test: Inhibition of Stp2-mediated L-arabinose uptake by added sugar; conditions: addition of 10 mM of the sugar
T1 construct: The open reading frame (ORF) of AtStp2 was amplified and cloned behind the shortened strong HXT7 promoter; expressed in transfected cells; host or cells: S. cerevisiae strain MKY06 (all hexose transporters deleted), plasmid pTHStp2
T1 sequence (Q9LNV3 1-498): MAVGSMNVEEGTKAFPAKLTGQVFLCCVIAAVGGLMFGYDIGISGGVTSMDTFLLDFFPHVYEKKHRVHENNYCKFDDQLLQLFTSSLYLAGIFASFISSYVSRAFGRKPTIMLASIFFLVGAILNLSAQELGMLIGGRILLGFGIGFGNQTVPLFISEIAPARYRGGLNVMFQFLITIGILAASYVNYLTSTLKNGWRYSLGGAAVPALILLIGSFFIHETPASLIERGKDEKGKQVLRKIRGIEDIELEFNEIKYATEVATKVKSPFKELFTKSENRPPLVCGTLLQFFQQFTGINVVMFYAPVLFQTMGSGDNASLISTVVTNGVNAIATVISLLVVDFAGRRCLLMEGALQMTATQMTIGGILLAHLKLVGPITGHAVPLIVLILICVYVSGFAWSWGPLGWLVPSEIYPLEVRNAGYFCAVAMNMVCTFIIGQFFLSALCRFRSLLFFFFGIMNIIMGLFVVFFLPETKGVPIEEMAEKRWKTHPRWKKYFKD
Protocol: (§1) The initial rates of sugar uptake were measured as follows: a 50-0 aliquot of a sugar solution containing (1-^3H)-labeled L-arabinose, (U-^14C) labeled O-glucose (American Radiolabeled Chemicals Inc.) or (1-^14C) labeled D-galactose (Amersham) was incubated at 30° C. and was mixed with 100 μl of yeast suspensions having the same temperature, resulting in final sugar concentrations of 10 mM L-arabinose, D-glucose and D-galactose. For determination of L-arabinose uptake kinetics 0.1, 1, 5, 10, and 50 mM L-arabinose were used. After different time intervals 10 ml of ice-cold 100 mM potassium phosphate buffer at pH 6.5 with 500 mM. D-glucose was added, and the suspension was immediately filtrated using Durapore® membrane filters (0.22 μm pore size, Millipore). The filter was washed two times with 10 ml of cold potassium phosphate buffer with 500 mM D-glucose. […] Rotiszint® eco plus (Roth) and the radioactivity measured in a scintillation counter. Uptake of radioactivity was nearly linear in time intervals up to 2 minutes. […] Dry weight was determined by filtering 10 ml of the culture through a pre-weighted nitrocellulose filter (0.45 μm pore size; Roth, Germany). […] KM and vmax values were calculated using the program GraphPad Prism 5.0.
(§2) For L-arabinose, uptake kinetics were determined by measuring L-arabinose uptake at various concentrations between 0.1 and 50 mM during 2-minute time intervals. […]

Gal2 = biological target: T2, Gal2 (Saccharomyces cerevisiae, UniProt P13181); test: Inhibition of Gal2-mediated L-arabinose uptake by added sugar; conditions: addition of 10 mM of the sugar
T2 construct: expressed in transfected cells; host or cells: S. cerevisiae strain MKY06 (all hexose transporters incl. gal2 deleted)
T2 sequence (P13181 1-574): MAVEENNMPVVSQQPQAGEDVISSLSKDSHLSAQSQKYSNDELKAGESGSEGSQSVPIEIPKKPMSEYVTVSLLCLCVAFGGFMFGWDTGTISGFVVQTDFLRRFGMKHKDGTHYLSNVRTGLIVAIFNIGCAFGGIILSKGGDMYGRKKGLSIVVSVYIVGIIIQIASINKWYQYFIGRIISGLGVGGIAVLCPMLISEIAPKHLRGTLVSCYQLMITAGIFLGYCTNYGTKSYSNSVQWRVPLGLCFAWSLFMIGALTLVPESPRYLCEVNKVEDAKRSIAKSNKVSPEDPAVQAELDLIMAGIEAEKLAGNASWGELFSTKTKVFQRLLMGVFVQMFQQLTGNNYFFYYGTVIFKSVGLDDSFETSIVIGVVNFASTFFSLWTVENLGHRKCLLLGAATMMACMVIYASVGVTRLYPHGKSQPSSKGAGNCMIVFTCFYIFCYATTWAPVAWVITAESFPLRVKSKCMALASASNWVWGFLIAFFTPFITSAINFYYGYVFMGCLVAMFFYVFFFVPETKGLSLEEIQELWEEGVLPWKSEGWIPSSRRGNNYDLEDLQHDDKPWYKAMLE
Protocol: as §1, §2

strain MKY06-3P = test: Sugar consumption / fermentation analysis by HPLC in SC medium under aerobic conditions; conditions: transporter overexpressed
Protocol: (§3) Fermentation analysis of the MKY06-3P containing the plasmids p426-opt-AraT-S (A) or pTHSTp2 (B) in SC medium with 2% glucose under aerobic conditions. As controls the strain MKY06-3P was used containing the plasmids pHL125^re (positive) or p426HXT7-6HIS (negative). The strains with the various plasmids were adducted in SC medium with 2% glucose and inoculated with an OD600nm=1 in 50 ml SC medium. The incubation took place in 300 ml shaking flasks under aerobic conditions at 30° C. Samples were taken several times during the 120 hours to determine the sugar concentration via HPLC analysis.
as §3, with “arabinose” for “glucose”, “analysis. […]” for “analysis.”
The samples taken in the tests were centrifuged for 10 min at 3000 R/min, in order to pellet the yeast cells. […] The sugar concentrations were measured by means of BioLC (Dionex). […]

[1] = system: L-arabinose uptake, strain MKY06; test: L-arabinose uptake kinetics with radioactively labeled sugar in strain MKY06 overexpressing the transporter; conditions: L-arabinose as the substrate; 0.1-50 mM, 2-minute intervals
Protocol: The initial rates of sugar uptake were measured as follows: a 50-0 aliquot of a sugar solution containing (1-^3H)-labeled L-arabinose, (U-^14C) labeled O-glucose (American Radiolabeled Chemicals Inc.) or (1-^14C) labeled D-galactose (Amersham) was incubated at 30° C. and was mixed with 100 μl of yeast suspensions having the same temperature, resulting in final sugar concentrations of 10 mM L-arabinose, D-glucose and D-galactose. For determination of L-arabinose uptake kinetics 0.1, 1, 5, 10, and 50 mM L-arabinose were used. After different time intervals 10 ml of ice-cold 100 mM potassium phosphate buffer at pH 6.5 with 500 mM. D-glucose was added, and the suspension was immediately filtrated using Durapore® membrane filters (0.22 μm pore size, Millipore). The filter was washed two times with 10 ml of cold potassium phosphate buffer with 500 mM D-glucose. Filters were transferred to 5 ml scintillation vials containing 4.5 ml. Rotiszint® eco plus (Roth) and the radioactivity measured in a scintillation counter. Uptake of radioactivity was nearly linear in time intervals up to 2 minutes. The results shown are average values for two to three independent experiments. Dry weight was determined by filtering 10 ml of the culture through a pre-weighted nitrocellulose filter (0.45 μm pore size; Roth, Germany). The filters were washed with demineralized water, dried in a microwave oven for 20 minutes at 140 W, and weighted again. KM and vmax values were calculated using the program GraphPad Prism 5.0.
For L-arabinose, uptake kinetics were determined by measuring L-arabinose uptake at various concentrations between 0.1 and 50 mM during 2-minute time intervals. While Gal2 turned out to transport L-arabinose with low affinity and high capacity, Stp2 mediated uptake of L-arabinose with low capacity but high affinity (Table 1).

[2] = system: D-glucose uptake, strain MKY06; test: Initial rate of D-glucose uptake with radioactively labeled sugar in strain MKY06 overexpressing the transporter; conditions: 10 mM D-glucose, 1 minute; empty-vector background subtracted
Protocol: Initial rates of sugar uptake of strain MKY06 expressing Stp2 (AtStp2) or Gal2 (ScGal2). Cells were grown on D-galactose or maltose (empty vector), harvested and incubated with the radioactively labeled sugars: 10 mM L-arabinose (A), 10 mM D-galactose (B) and 10 mM D-glucose (C) for 2 minutes (L-arabinose) or 1 minute (D-galactose, D-glucose). The background values determined with cells containing the empty vector were subtracted.
as §1, with “used.” for “used. After different time intervals 10 ml of ice-cold 100 mM potassium phosphate buffer at pH 6.5 with 500 mM. D-glucose was added, and the suspension was immediately filtrated using Durapore® membrane filters (0.22 μm pore size, Millipore). The filter was washed two times with 10 ml of cold potassium phosphate buffer with 500 mM D-glucose.”, “5.0. […]” for “5.0.”

Molecule	Inhibition of L-arabinose uptake (Stp2) (Stp2)	Inhibition of L-arabinose uptake (Gal2) (Gal2)	Glucose transport in the strain MKY06-3P (strain MKY06-3P)	Km [1] [mM]	vmax [1]	D-glucose uptake rate [2] [nmol/min/mg DM]
O=C[C@H](O)[C@@H](O)[C@@H](O)[C@H](O)CO [D-galactose]	nearly completely inhibited	nearly completely inhibited				
O=C[C@H](O)[C@@H](O)[C@H](O)[C@H](O)CO [D-glucose]	nearly completely inhibited	nearly completely inhibited				
AraT			small amounts of glucose			
B1				4.5	0.6 +/− 0.08 nmol/min/mg DM	< 0.01
B2				57	2.2 +/− 0.26 nmol/min/mg DM	4.7
